Measured values from the nanobody polyreactivity screen of Harvey et al. (2022).

Experiment: yeast display, Sf9 membrane polyspecificity reagent, FACS + sequencing; frameworks hold sequencing errors
Summary of the method: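 Polyreactivity labels are assigned by the sorting gate from which each nanobody was recovered. The gates were low and high (top ~1%), set on anti-HA fluorescence for expression and streptavidin fluorescence for reagent binding. Before sorting, galactose-induced (36–48 hours) yeast display cells were stained for 1 hour at 4 °C with 10% biotinylated, detergent-solubilized Sf9 membrane reagent.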

Sequence	polyreactivity (PSR sort gate)
QVQLVESGGGLVQAGGSLRLSCAASGRIFVGYAMGWYRQAPGKERELVAAINRSGSSTYYADSVKGRFTISRDYAKITVYLQMNSLKPEDTAVYYCNARSGNRYGPRYDYWGQGTQVTVSS	high polyreactivity
QVQLVESGGGLVQAGGSLRLSCAASGRIFVGYAMGWYRQAPGKERELVAAISARGGSTYYADSVMGRFTISRDNAKNTVYLQMNSLKPEDTADYYCAADEASSRGYYDSDYWGQCTQVTVSS	low polyreactivity
QVQLVESGGGLVQAGGSLRLSCAASGRIFVGYAMGWYRQAPGKERELVATITGSGGRTYYADSVKGRFTISRDNAKNTVYLQMNSLKPEDTAVFYCATRPPLFYYDDHDDDDYWGQGTQVTVSS	low polyreactivity
QVQLVESGGGLVQAGGSLRLSCAASGRIFVHYAMGWYRQAPGKEREWVAAITSGSSTNYADSVKGRFTISRDNAKNTVYLQMNSLKPEDTAVYYCAVDDWLDWLCADFGYWGQGTQVTVSS	low polyreactivity
QVQLVESGGGLVQAGGSLRLSCAASGRIFVKNAMGWYRQAPGKERELVAGISRGGSTYYADSVKGRFTISRDNAKNTVYLQMNSLKPEDTAVYYCATRNYGRGQFDYWGQGTQVTVSS	high polyreactivity
QVQLVESGGGLVQAGGSLRLSCAASGRIFVKYAMGLYRQAPGKERELVAAIRSGGSTYYADSVKRRFTISRDNAKYTVYLQMNSLKPEDTAVYYCAADRNKHHYYNEPYDYWGQGTQVTVSS	low polyreactivity
QVQLVESGGGLVQAGGSLRLSCAASGRIFVNNAMGWYRQAPGKEREFVAGISFSGDGRTYYADSVKGRFTISRDNAKNTVYLQMNSLKPEDTAVYYCAAPHRSRTHELDYWGQGTQVTVSS	low polyreactivity
QVQLVESGGGLVQAGGSLRLSCAASGRIFVNYAMGWYRQAPGKERELDAAITSDGSTSYADSVKGRFTISRDNAKNTVYLQMNSLKPEDTAVYYCAKDFFEHSPVSHTYSSSKYDYWGQGTQVTVSS	low polyreactivity
QVQLVESGGGLVQAGGSLRLSCAASGRIFVPYAMGWYRQAPGKERELVATITFGGGRTYYADSVKGRFTISRDNAKNTVYLQMNSLKPEDTAVYYCAADYYLWRLPVYAQRSFVRGDYWGQGTQVTVSS	low polyreactivity
QVQLVESGGGLVQAGGSLRLSCAASGRIFVPYAMGWYRQAPGKERELVAVISRGGSTYYADSVKGRFTISRDNAKNTVYLQMNSLKPEDTAVYYCAARGVNRQGFNYWGQGTQVTVSS	high polyreactivity
QVQLVESGGGLVQAGGSLRLSCAASGRIFVQNAMGWYRQAPGKEREVVAAISSRGTSTYYADSVKGRFTISRDNAKNTVYLQMNSLKPEDTALYYCAAREWRTFDYWGQGTQVTVSS	low polyreactivity
QVQLVESGGGLVQAGGSLRLSCAASGRIFVQYVMGWYRPAPGKERELVAAITGSDSTTYYADSVKGRFTISRDNAKNTVYLQMNSLKPEDTAVYYCNKDLWLQDDYWGQGTQVTVSS	low polyreactivity
QVQLVESGGGLVQAGGSLRLSCAASGRIFVRNAMGWYRQAPGKERELVAAISWSSGGTYYADSVKGRFTISRDNAKNTVYLQMNSLKPEDTAVYYCNADPSRAGDYWGQGTQVTVSS	low polyreactivity
QVQLVESGGGLVQAGGSLRLSCAASGRIFVRYAMGWYRQAPGKERELVAAIRWSGGRTYYADSVKGRFTISRDNAKNTFYLQMNSLKPEDTAVYYCAVRYRDLFGYWGQGTQVTVSS	high polyreactivity
QVQLVESGGGLVQAGGSLRLSCAASGRIFVRYAMGWYRQAPGKERELVAAISSGGRTHYADSVKGRFTISRDNAKNTVYLQRNSLKPEDTAVYDCATRLRSTTRYYYWGQGTQVTVSS	high polyreactivity
QVQLVESGGGLVQAGGSLRLSCAASGRIFVRYAMGWYRQAPGKERELVAAISSRGGTTYYADSVKGRFTISRDNAKNTVYLQMNSLKPEDTAVYYCAALYDSTYGGVLFDYWGQGTQVTVSS	low polyreactivity
QVQLVESGGGLVQAGGSLRLSCAASGRIFVRYVMGWYRLAPGKERELVAAINWNGGSTYYADSVKGRFTISRDNAKNTVYLQMNSLKPEDTAVYYGAARGQFYNTRGGYWGQGTQVTVSS	high polyreactivity
